Reference: US20250011804A1 (PIONEER HI BRED INTERNATIONAL, published 2025)

B1: ZmSFT-LIKE (other)
chain: MGSVLLPTLRLKSEVDAAIRDTLDKVLVLRFGRATDATCLHLDDILDKSSWDISKFAMVALVDMDSEEIQVYIDYFDITLVPATIFFFNAHHMKMDSGTPDHTKWIGSFSSKQDFIDVVEAIFRGAMKGKLIVSCPLPPERIPRFQLLFKDV
notes: Tested as prey fusions; also called ZmSFT-like - Zea mays mRNA splicing factor thioredoxin-like U5 snRNP; GRMZM2G086779
B2: ZmMADS7-LIKE (other)
chain: MGRGRVELKRIENKINRQVTFAKRRNGLLKKAYELSVLCDAEVALIVFSNRGKLYEFCSGPSITRTLERYEKNSYAGPDTAVQNKENELVQNSRNEYLKLKAKVDNLQRTQRNLLGEDLGSLGVKELDQLEKQIDSSLSHIRSTRTQHMLDQLTDLQRREQMMCEANKCLRRKLEETSNQVHGQVWEHGANLLLGYERHSSPQQAPSHVGNGLFFHPLEAAAEPTLQIGFAPEHMNNFMPAWLP
notes: Tested as prey fusions; also called zmm7 - Zea mays MADS7; GRMZM2G097059
B3: ZmMADSL6 (other)
chain: MGRGRVELKRIENKINRQVTFAKRRNGLLKKAYELSVLCDAEVALIIFSNRGKLYEFSSTQSMPKTLEKYQKCSFAGPETALQNRENEQLKSSRNEYLKLKARVDNLQRTQRNLLGEDLESLGIKELEHLEKQLDSSLKHIRSTRTQHMVDQLTELQKKEQMFCEANKCLRRRLEESNQVIWQHAWEQSERHSEVQPQQLNGNNFFHPLDGAGEPTLQIGYPSEALTSSCMTTFLPPWLP
notes: positive control of the BiFC assay (full length); Tested as prey fusions; also called WT ZMMADSL6; full length ZmMADSL6
B4: Zmm28 transcription factor (other)
chain: MGRGPVQLRRIENKINRQVTFSKRRNGLLKKAHEISVLCDAEVALIVFSTKGKLYEYSSHSSMEGILERYQRYSFEERAVLNPSIEDQANWGDEYVRLKSKLDALQKSQRQLLGEQLSSLTIKELQQLEQQLDSSLKHIRSRKNQLMFDSISALQKKEKALTDQNGVLQKFMEAEKEKNKALMNAQLREQQNGASTSSPSLSPPIVPDSMPTLNIGPCQHRGAAESESEPSPAPAQANRGNLPPWMLRTVK
notes: MADS-box transcription factor; also called Zm00001d022088
B5: ZmMADS24 (other)
chain: MGRGKVVLQRIENKISRQVTFAKRRNGLLKKAYELSILCDAEVALVLFSHAGRLYQFSSSSNLLKTLERYQRYIYASADAAVPSSDQMQNNYQEYVKLKARVEVLQHSQRNLLGEDLALLSPSELDQLENQVDKTLKQIRSRKTQVLLDELCDLKRKEQMLQDANRVLKRKLGEFEAEAASPPQLAWQGEGGMLSHDPPQPEHFFQALESNPCLQPTYHTMDMNQQPVPAPGGCYPAWMS
notes: Tested as prey fusions; also called zmm24 - Zea mays MADS24; GRMZM2G087095
B6: ZmZAG2 (other)
chain: MGRGRIEIKRIENNTSRQVTFCKRRNGLLKKAYELSVLCDAEVALIVFSSRGRLYEYANNSVKATIERYKKAHTVGSSSGPPLLEHNAQQFYQQESAKLRNQIQMLQNTNRHLVGDSVGNLSLKELKQLESRLEKGISKIRARKSELLAAEISYMAKRETELQNDHMTLRTKIEEGEQQLQQVTVARSVAAAAAAATNLELNPFLEMDTKCFFTGGPFATLDMKCFLPGSLQQMLEAQQRQMLATELNLGYQLAPPGSDAADNNPHHQF
notes: Tested as prey fusion (GAL4 AD in Y2H/HY1H, nGFP with 30x glutamine linker in BiFC); also called zag2 - Zea AGAMOUS homolog2; GRMZM2G160687
B7: ZmSF2 (other)
chain: MTRRNGCTIYVGNLPGDIREREVDDLFYKGRQCGLRMYGRIVEIDLKIPPRPPGFAFVEFEDARDAEDAIYGRDGYNFDGHRLRVELAHGGRGTSSFDRSSSYSSAGQRGASKRSDYRVMVTGLPSSASWQDLKDHMRRAGDVCFTDVYREAGATIGIADYTNYEDMKHAIRKLDDSEFRNAFSRTYVRVREYDARRSRSRSRGRNRSKSRSRSHSHSYSRSRSCSYSKSRSPRSRSASESKSPVKARSPSRSPPVSPRRDKSASRSPARSKSLPRSCSPAKSE
notes: Tested as prey fusions; also called Zea mays splicing factor 2; GRMZM2G170365

Tests used:
[1] = target: B4; test: BiFC, maize protoplasts, flow cytometry
Description: (§1) Potential interaction partners of ZMM28 were further tested in vivo with a bimolecular fluorescence complementation (BiFC) assay. Following transfection of maize protoplasts, fluorescence was measured indicating interaction between nGFP-Prey and cGFP-ZMM28 (Bait). As BiFC is prone to false-positive self-assembly independent of protein-protein interaction, flow cytometry was used to quantify the BiFC signal and reduce the occurrence of false positives. All signal comparisons were made to a negative control providing a baseline for self-assembly. The control was created by deleting 47 amino acids from the leucine zipper-like K-domain of ZMMADSL6, a protein interaction partner of ZMM28 identified from bioinformatics prediction and Y2H experiment. […] Of the 12 tested protein interactions, eight were confirmed via the BiFC assay with almost half the interactions confirmed positive in both BiFC and Y2H assays (Table 2a). Table 2: ZMM28 protein-protein interactions, transcription, direct targets.
(§2) Maize seedlings were germinated and grown in Fafard Super Fine Germination Mix for 6 days in a lighted growth chamber (30° C., 60% RH, 24 h light) and were transferred to a dark growth chamber (30° C., 60% RH, 0 h light) and grown for an additional 4 days to V1. Seedlings were sub-irrigated with deionized water. Maize protoplasts were isolated from these seedlings and were transiently transformed by PEG-mediated transfection as described by Yoo et al.63 with the addition of 0.6 M mannitol in the enzyme, WI, W5 and MMG solutions. Protoplasts were transfected with 10 pmol bait+10 pmol prey plasmid DNA per 3×10^4 cells. Protoplasts were incubated on a 12-well (1 mL WI) plate for 20 hours at RT before samples were analyzed.
(§3) BiFC signals were detected by flow cytometry performed using an Attune™ Flow Cytometer (Thermo Fisher Scientific, Waltham, MA, USA) with a Blue/Violet configuration (488 nm, 20 mW laser and a 405 nm, 50 mW laser).

[2] = target: the molecule itself; test: BiFC, maize protoplasts, flow cytometry
Description: as §1, §2, §3

BiFC positive cell count [1]	Binder	BiFC positive cell count [2]
2330 cells out of 10,000	B1	–
438 cells out of 10,000	B2	–
4060 cells out of 10,000	B3	–
–	B4	1010 cells out of 10,000
2100 cells out of 10,000	B5	–
125 cells out of 10,000	B6	–
715 cells out of 10,000	B7	–
